Test results taken from article PMC4069081, “Multivalent Viral Capsids with Internal Cargo for Fibrin Imaging” (PLoS ONE, 2014).

Assays:
[1] = biological target: fibrin clots formed from purified bovine fibrinogen with thrombin and CaCl2 (bovine) (UniProt P12799)
[2] = test system: fibrin; details: compared with original peptide (Gly-Pro-Arg); ref [41]; cited from earlier work
Experimental: In this work, a peptide targeting group (GPR) with an affinity for fibrin was chosen to create a thrombus targeted VLP [38]. The GPR peptide was derived from the N-terminus of the α-chain of fibrin (Gly-Pro-Arg), and was discovered to bind to a pocket in the C-terminal region of the γ-chain [39], [40]. […] A GPR peptide bearing an o-aminophenol for coupling to MS2 was prepared using solid phase peptide synthesis (Figure 1b). The sequence Gly-Gly-Ser-Lys-Gly-Tyr was added to the peptide to increase the spacing between the binding residues and the capsid, as well as provide a functional handle for modification (Tyr). For peptide samples used in op ...

[3] = compared with original peptide (Gly-Pro-Arg); ref [41]; cited from earlier work
From the text: (§1) In this work, a peptide targeting group (GPR) with an affinity for fibrin was chosen to create a thrombus targeted VLP [38]. The GPR peptide was derived from the N-terminus of the α-chain of fibrin (Gly-Pro-Arg), and was discovered to bind to a pocket in the C-terminal region of the γ-chain [39], [40].

[4] = test system: fibrin; details: competitive binding to the fibrin polymerization pocket; ref [39], [40]; cited from earlier work
From the text: as §1

free GPR peptide with C-terminal tyrosine
peptide concentration at which thrombin-induced clotting is inhibited (10 µM to 1.7 mM tested) [1]: > 300 µM | thrombin-induced clotting time of fibrin (light scattering at 350 nm) at 20 µM peptide; unchanged [1]: 18 min

Gly-Pro-Arg-Pro-Pro
Fibrin binding of extended peptide [2]: improved fibrin-binding | Proteolytic resistance [3]: increased proteolytic resistance

MS2 capsids (T19pAF/N87C) without peptide
thrombin-induced clotting time of fibrin (light scattering at 350 nm) at 222 nM MS2 capsid; unchanged [1]: 16 min

free GPS peptide with C-terminal tyrosine
thrombin-induced clotting time of fibrin (light scattering at 350 nm) at 20 µM peptide; unchanged [1]: 13 min

GPS-MS2: bacteriophage MS2 T19pAF/N87C capsid with the GPS control peptide coupled to its exterior
thrombin-induced clotting time of fibrin (light scattering at 350 nm) at 222 nM MS2 capsid (~20 µM peptide); unchanged [1]: 16 min

Gly-Pro-Arg [originally discovered peptide from N-terminus of the α-chain of fibrin]
Inhibition of thrombin-mediated fibrin clotting [4]: inhibit thrombin-mediated fibrin clotting

GPR-MS2: bacteriophage MS2 T19pAF/N87C capsid with the GPR fibrin-targeting peptide coupled to its exterior
thrombin-induced clotting time of fibrin (light scattering at 350 nm) at 222 nM MS2 capsid (~20 µM peptide) [1]: 51 min
